In patent US8748182B2, “Mutant proteins and methods for producing them” (Heptares Therapeutics Limited, priority 2007, dated 2014):
Where a chain is given by its changes, count along the chain named. Names and notes keep the numbering of the source.

B1: 1116A: NTR point mutant (Ile 116) (protein, UniProt P20789 1-424, looked up, variant I116A)
Neurotensin receptor type 1: MHLNSSVPQGTPGEPDAQPFSGPQSEMEATFLALSLSNGSGNTSESDTAGPNSDLDVNTDIYSKVLVTAIYLALFVVGTVGNSVTAFTLARKKSLQSLQSTVHYHLGSLALSDLLALLLAMPVELYNFIWVHHPWAFGDAGCRGYYFLRDACTYATALNVASLSVERYLAICHPFKAKTLMSRSRTKKFISAIWLASALLAIPMLFTMGLQNRSGDGTHPGGLVCTPIVDTATVKVVIQVNTFMSFLFPMLVISILNTVIANKLTVMVHQAAEQGRVCTVGTHNGLEHSTFNMTIEPGRVQALRHGVLVLRAVVIAFVVCWLPYHVRRLMFCYISDEQWTTFLFDFYHYFYMLTNALFYVSSAINPILYNLVSANFRQVFLSTLACLCPGWRHRRKKRPTFSRKPNSMSSNHAFSTSATRETLY
B2: F358A: NTR point mutant (protein, UniProt P20789 1-424, looked up, variant F358A)
Neurotensin receptor type 1: B1 Neurotensin receptor type 1 with A116I, F358A
B3: Y351A: NTR point mutant (protein, UniProt P20789 1-424, looked up, variant Y351A)
Neurotensin receptor type 1: B1 Neurotensin receptor type 1 with A116I, Y351A
B4: L256A: NTR point mutant (protein, UniProt P20789 1-424, looked up, variant L256A)
Neurotensin receptor type 1: B1 Neurotensin receptor type 1 with A116I, L256A
B5: M293A: NTR point mutant (protein, UniProt P20789 1-424, looked up, variant M293A)
Neurotensin receptor type 1: B1 Neurotensin receptor type 1 with A116I, M293A
B6: K176A: NTR point mutant (protein, UniProt P20789 1-424, looked up, variant K176A)
Neurotensin receptor type 1: B1 Neurotensin receptor type 1 with A116I, K176A
B7: S100A: NTR point mutant (protein, UniProt P20789 1-424, looked up, variant S100A)
Neurotensin receptor type 1: B1 Neurotensin receptor type 1 with S100A, A116I
B8: L72A: NTR point mutant (protein, UniProt P20789 1-424, looked up, variant L72A)
Neurotensin receptor type 1: B1 Neurotensin receptor type 1 with L72A, A116I
B9: M181A: NTR point mutant (protein, UniProt P20789 1-424, looked up, variant M181A)
Neurotensin receptor type 1: B1 Neurotensin receptor type 1 with A116I, M181A
B10: S182A: NTR point mutant (protein, UniProt P20789 1-424, looked up, variant S182A)
Neurotensin receptor type 1: B1 Neurotensin receptor type 1 with A116I, S182A
B11: L109A: NTR point mutant (protein, UniProt P20789 1-424, looked up, variant L109A)
Neurotensin receptor type 1: B1 Neurotensin receptor type 1 with L109A, A116I
B12: T179A: NTR point mutant (protein, UniProt P20789 1-424, looked up, variant T179A)
Neurotensin receptor type 1: B1 Neurotensin receptor type 1 with A116I, T179A
B13: A356L: NTR point mutant (protein, UniProt P20789 1-424, looked up, variant A356L)
Neurotensin receptor type 1: B1 Neurotensin receptor type 1 with A116I, A356L
B14: A90L: NTR point mutant (protein, UniProt P20789 1-424, looked up, variant A90L)
Neurotensin receptor type 1: B1 Neurotensin receptor type 1 with A90L, A116I
B15: L205A: NTR point mutant (protein, UniProt P20789 1-424, looked up, variant L205A)
Neurotensin receptor type 1: B1 Neurotensin receptor type 1 with A116I, L205A
B16: F189A: NTR point mutant (protein, UniProt P20789 1-424, looked up, variant F189A)
Neurotensin receptor type 1: B1 Neurotensin receptor type 1 with A116I, F189A
B17: N262A: NTR point mutant (protein, UniProt P20789 1-424, looked up, variant N262A)
Neurotensin receptor type 1: B1 Neurotensin receptor type 1 with A116I, N262A
B18: G209A: NTR point mutant (protein, UniProt P20789 1-424, looked up, variant G209A)
Neurotensin receptor type 1: B1 Neurotensin receptor type 1 with A116I, G209A
B19: D139A: NTR point mutant (protein, UniProt P20789 1-424, looked up, variant D139A)
Neurotensin receptor type 1: B1 Neurotensin receptor type 1 with A116I, D139A
B20: H103A: NTR point mutant (protein, UniProt P20789 1-424, looked up, variant H103A)
Neurotensin receptor type 1: B1 Neurotensin receptor type 1 with H103A, A116I
B21: V268A: NTR point mutant (protein, UniProt P20789 1-424, looked up, variant V268A)
Neurotensin receptor type 1: B1 Neurotensin receptor type 1 with A116I, V268A
B22: D113A: NTR point mutant (protein, UniProt P20789 1-424, looked up, variant D113A)
Neurotensin receptor type 1: B1 Neurotensin receptor type 1 with D113A, A116I
B23: R392A: NTR point mutant (protein, UniProt P20789 1-424, looked up, variant R392A)
Neurotensin receptor type 1: B1 Neurotensin receptor type 1 with A116I, R392A
B24: S108A: NTR point mutant (protein, UniProt P20789 1-424, looked up, variant S108A)
Neurotensin receptor type 1: B1 Neurotensin receptor type 1 with S108A, A116I
B25: W391A: NTR point mutant (protein, UniProt P20789 1-424, looked up, variant W391A)
Neurotensin receptor type 1: B1 Neurotensin receptor type 1 with A116I, W391A
B26: A155L: NTR point mutant (protein, UniProt P20789 1-424, looked up, variant A155L)
Neurotensin receptor type 1: B1 Neurotensin receptor type 1 with A116I, A155L
B27: A120L: NTR point mutant (protein, UniProt P20789 1-424, looked up, variant A120L)
Neurotensin receptor type 1: B1 Neurotensin receptor type 1 with A116I, A120L
B28: S362A: NTR point mutant (protein, UniProt P20789 1-424, looked up, variant S362A)
Neurotensin receptor type 1: B1 Neurotensin receptor type 1 with A116I, S362A
B29: P399A: NTR point mutant (protein, UniProt P20789 1-424, looked up, variant P399A)
Neurotensin receptor type 1: B1 Neurotensin receptor type 1 with A116I, P399A
B30: T207A: NTR point mutant (protein, UniProt P20789 1-424, looked up, variant T207A)
Neurotensin receptor type 1: B1 Neurotensin receptor type 1 with A116I, T207A
B31: D345A: NTR point mutant (protein, UniProt P20789 1-424, looked up, variant D345A)
Neurotensin receptor type 1: B1 Neurotensin receptor type 1 with A116I, D345A
B32: L111A: NTR point mutant (protein, UniProt P20789 1-424, looked up, variant L111A)
Neurotensin receptor type 1: B1 Neurotensin receptor type 1 with L111A, A116I
B33: F147A: NTR point mutant (protein, UniProt P20789 1-424, looked up, variant F147A)
Neurotensin receptor type 1: B1 Neurotensin receptor type 1 with A116I, F147A

Test: Thermostability of neurotensin receptor (NTR) mutants (3H-neurotensin binding)
Format: physicochemical
Conditions: for thermostability, 3H-neurotensin (agonist) binding after the heating step: heated in the absence of the agonist; for thermostability, heated in the presence of 3H-neurotensin: Ligand(+) format
Experimental: FIG. 12 Flow chart showing the two different assay formats of ligand (+) and ligand (−) used to determine receptor thermostablity.
3. Mutants tested for thermostability by heating in the absence of the agonist were re-tested using a slightly different assay where the mutants were heated in the presence of ^3H-neurotensin (Ligand(+) format in FIG. 12). […] All of these also have increased thermostability. • 5. Preferred combinations are • a. Nag7m F358A+A86L+1260A+F342A Tm 51° C. (neurotensin bound) • b. Nag7n F358A+H103A+1260A+F342A Tm 51° C. (neurotensin bound) • Wildtype NTR has a Tm of 35° C. with neurotensin bound.

Row | Molecule | thermostability, 3H-neurotensin (agonist) binding after the heating step | thermostability, heated in the presence of 3H-neurotensin
1 | B1 | small but significant increase in thermostability | 
2 | B2 | small but significant increase in thermostability | improved thermostability
3 | B3 | small but significant increase in thermostability | 
4 | B4 | small but significant increase in thermostability | 
5 | B5 | small but significant increase in thermostability | 
6 | B6 | small but significant increase in thermostability | 
7 | B7 | small but significant increase in thermostability | 
8 | B8 | small but significant increase in thermostability | 
9 | B9 | small but significant increase in thermostability | 
10 | B10 | small but significant increase in thermostability | 
11 | B11 | small but significant increase in thermostability | 
12 | B12 | small but significant increase in thermostability | 
13 | B13 | small but significant increase in thermostability | 
14 | B14 | small but significant increase in thermostability | improved thermostability
15 | B15 | small but significant increase in thermostability | 
16 | B16 | small but significant increase in thermostability | 
17 | B17 | small but significant increase in thermostability | 

Row | Molecule | thermostability, 3H-neurotensin (agonist) binding after the heating step | thermostability, heated in the presence of 3H-neurotensin
18 | B18 | small but significant increase in thermostability | 
19 | B19 | small but significant increase in thermostability | 
20 | B20 | small but significant increase in thermostability | improved thermostability
21 | B21 | small but significant increase in thermostability | 
22 | B22 | small but significant increase in thermostability | 
23 | B23 | small but significant increase in thermostability | 
24 | B24 | small but significant increase in thermostability | 
25 | B25 | small but significant increase in thermostability | 
26 | B26 | small but significant increase in thermostability | 
27 | B27 | small but significant increase in thermostability | 
28 | B28 | small but significant increase in thermostability | improved thermostability
29 | B29 | small but significant increase in thermostability | 
30 | B30 | small but significant increase in thermostability | 
31 | B31 | small but significant increase in thermostability | 
32 | B32 | small but significant increase in thermostability | 
33 | B33 | small but significant increase in thermostability | 
